IntAct's records for PubMed 18612383

B1: Cellular tumor antigen p53 (Mus musculus), P02340 (parent)
chain: MTAMEESQSDISLELPLSQETFSGLWKLLPPEDILPSPHCMDDLLLPQDVEEFFEGPSEALRVSGAPAAQDPVTETPGPVAPAPATPWPLSSFVPSQKTYQGNYGFHLGFLQSGTAKSVMCTYSPPLNKLFCQLAKTCPVQLWVSATPPAGSRVRAMAIYKKSQHMTEVVRRCPHHERCSDGDGLAPPQHLIRVEGNLYPEYLEDRQTFRHSVVVPYEPPEAGSEYTTIHYKYMCNSSCMGGMNRRPILTIITLEDSSGNLLGRDSFEVRVCACPGRDRRTEEENFRKKEVLCPELPPGSAKRALPTCTSASPPQKKKPLDGEYFTLKIRGRKRFEMFRELNEALELKDAHATEESGDSRAHSSYLKTKKGQSTSRHKKTMVKKVGPDSD

Variants of: B1
Conditions: with ep300_human EP300, Q09472
Sequence of ep300_human EP300, Q09472 (Q09472 whole entry): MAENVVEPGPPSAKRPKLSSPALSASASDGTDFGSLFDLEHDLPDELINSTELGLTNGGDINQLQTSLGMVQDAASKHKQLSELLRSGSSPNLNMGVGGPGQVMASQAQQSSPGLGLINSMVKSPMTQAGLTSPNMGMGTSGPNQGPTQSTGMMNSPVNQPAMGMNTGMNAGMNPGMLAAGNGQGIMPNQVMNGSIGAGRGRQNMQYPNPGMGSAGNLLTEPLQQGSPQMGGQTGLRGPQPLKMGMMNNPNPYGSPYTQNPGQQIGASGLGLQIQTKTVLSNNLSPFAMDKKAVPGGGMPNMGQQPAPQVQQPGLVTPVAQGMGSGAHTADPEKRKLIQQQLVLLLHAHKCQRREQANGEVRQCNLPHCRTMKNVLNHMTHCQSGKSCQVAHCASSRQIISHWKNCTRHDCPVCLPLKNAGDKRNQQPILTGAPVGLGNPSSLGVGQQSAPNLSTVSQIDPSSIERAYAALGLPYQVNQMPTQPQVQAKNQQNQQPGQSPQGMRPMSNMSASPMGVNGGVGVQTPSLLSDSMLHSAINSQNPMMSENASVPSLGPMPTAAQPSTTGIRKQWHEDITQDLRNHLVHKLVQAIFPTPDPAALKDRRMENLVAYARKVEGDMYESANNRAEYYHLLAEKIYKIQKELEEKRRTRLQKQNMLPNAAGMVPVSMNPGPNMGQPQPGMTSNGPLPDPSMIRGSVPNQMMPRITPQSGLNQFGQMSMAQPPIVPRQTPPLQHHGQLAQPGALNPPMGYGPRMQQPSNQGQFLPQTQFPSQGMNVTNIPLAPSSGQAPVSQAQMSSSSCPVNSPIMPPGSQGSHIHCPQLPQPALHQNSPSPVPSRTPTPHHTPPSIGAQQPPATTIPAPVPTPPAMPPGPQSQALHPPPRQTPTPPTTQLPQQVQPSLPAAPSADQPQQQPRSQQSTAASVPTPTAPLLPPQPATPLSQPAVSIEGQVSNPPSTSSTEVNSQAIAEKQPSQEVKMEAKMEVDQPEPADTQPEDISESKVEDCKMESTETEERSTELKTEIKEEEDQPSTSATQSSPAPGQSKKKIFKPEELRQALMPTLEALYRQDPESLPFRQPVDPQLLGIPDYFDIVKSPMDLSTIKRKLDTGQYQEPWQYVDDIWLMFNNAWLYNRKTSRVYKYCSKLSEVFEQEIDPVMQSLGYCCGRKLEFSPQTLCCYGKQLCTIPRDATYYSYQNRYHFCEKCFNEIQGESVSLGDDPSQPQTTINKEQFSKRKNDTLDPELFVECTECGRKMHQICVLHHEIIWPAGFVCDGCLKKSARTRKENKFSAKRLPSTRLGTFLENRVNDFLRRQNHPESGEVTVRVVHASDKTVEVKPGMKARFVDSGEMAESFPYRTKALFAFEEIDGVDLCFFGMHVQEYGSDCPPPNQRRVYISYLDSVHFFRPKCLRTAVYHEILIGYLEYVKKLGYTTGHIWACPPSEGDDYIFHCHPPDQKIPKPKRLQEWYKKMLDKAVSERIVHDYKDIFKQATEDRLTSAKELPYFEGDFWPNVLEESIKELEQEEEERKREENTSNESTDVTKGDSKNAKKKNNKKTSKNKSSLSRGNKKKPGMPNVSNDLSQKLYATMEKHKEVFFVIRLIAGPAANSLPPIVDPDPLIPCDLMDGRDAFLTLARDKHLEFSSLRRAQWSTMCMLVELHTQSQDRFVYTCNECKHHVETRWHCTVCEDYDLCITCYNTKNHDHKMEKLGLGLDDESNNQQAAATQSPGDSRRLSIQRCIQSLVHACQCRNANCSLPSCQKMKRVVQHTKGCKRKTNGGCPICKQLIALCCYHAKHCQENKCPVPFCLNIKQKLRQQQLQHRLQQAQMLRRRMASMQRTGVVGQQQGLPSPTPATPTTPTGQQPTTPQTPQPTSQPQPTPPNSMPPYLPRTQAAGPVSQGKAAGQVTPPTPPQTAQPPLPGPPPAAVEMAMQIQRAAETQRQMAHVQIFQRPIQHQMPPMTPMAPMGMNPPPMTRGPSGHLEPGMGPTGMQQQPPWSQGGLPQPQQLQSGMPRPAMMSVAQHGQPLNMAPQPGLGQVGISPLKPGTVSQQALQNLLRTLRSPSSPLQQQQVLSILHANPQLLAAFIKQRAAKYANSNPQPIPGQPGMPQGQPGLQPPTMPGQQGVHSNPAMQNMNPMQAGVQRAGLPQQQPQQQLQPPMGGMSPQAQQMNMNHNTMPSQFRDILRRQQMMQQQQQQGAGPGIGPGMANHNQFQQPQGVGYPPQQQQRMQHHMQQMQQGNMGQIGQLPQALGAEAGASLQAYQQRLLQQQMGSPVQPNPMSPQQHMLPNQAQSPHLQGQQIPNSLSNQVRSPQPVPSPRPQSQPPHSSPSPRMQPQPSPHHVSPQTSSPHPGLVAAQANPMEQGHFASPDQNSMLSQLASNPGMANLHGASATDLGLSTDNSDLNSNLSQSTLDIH

| effect of a mutation on the interaction | Variant |
| --- | --- |
| decreasing interaction | MTAMEESQSDISLELPLSQETFSGQSKLLPPEDILPSPHCMDDLLLPQDVEEFFEGPSEALRVSGAPAAQDPVTETPGPVAPAPATPWPLSSFVPSQKTYQGNYGFHLGFLQSGTAKSVMCTYSPPLNKLFCQLAKTCPVQLWVSATPPAGSRVRAMAIYKKSQHMTEVVRRCPHHERCSDGDGLAPPQHLIRVEGNLYPEYLEDRQTFRHSVVVPYEPPEAGSEYTTIHYKYMCNSSCMGGMNRRPILTIITLEDSSGNLLGRDSFEVRVCACPGRDRRTEEENFRKKEVLCPELPPGSAKRALPTCTSASPPQKKKPLDGEYFTLKIRGRKRFEMFRELNEALELKDAHATEESGDSRAHSSYLKTKKGQSTSRHKKTMVKKVGPDSD [L25Q;W26S] |
